Assay results taken from publication PMC6078968, “Structural insights into the gating of DNA passage by the topoisomerase II DNA-gate” (Nature Communications, 2018).

What was measured:
[1] = biological target: the molecule itself; assay: crystal structure; open DNA-gate form of the hTop2β^core-DNA cleavage complex, space group P3_(2)21, one subunit in the asymmetric unit, homodimer built by the crystallographic twofold axis; 2.75 Å (5ZEN) and 3.87 Å with iodine-labelled DNA (5ZQF); MnCl2 in the sample buffer, reservoir pH 5.8, 4 °C
[2] = biological target: T1, hTop2βcore (DNA-binding and cleavage core of human topoisomerase 2β) (human, UniProt Q02880-2 445-1201); assay: X-ray crystallography (3.87 Å); open DNA-gate cleavage complex; Mn2+ (2 mM MnCl2), Mg acetate; etoposide or doxorubicin in crystallization mix, refined as binary complex; Crystallization: 5 mg/mL (~28 uM) protein, ~34 uM duplex, 2 mM etoposide or doxorubicin, 30 mM Tris-HCl pH 7.0, 70 mM NaCl, 2 mM MnCl2 (MgCl2 for P21), 1 mM EDTA, 2 mM β-mercaptoethanol; reservoir 100 mM Mg acetate, 50 mM MES pH 5.8 (5.6 for P21), …; conditions: protein: recombinant; chain copies: 2; blunt; self-complementary, 2 copies; cleaved with 4-nt stagger in the complex
[3] = biological target: T1, hTop2βcore (DNA-binding and cleavage …); assay: X-ray crystallography (2.75 Å); open DNA-gate cleavage complex; Mn2+ (2 mM MnCl2), Mg acetate; etoposide or doxorubicin in crystallization mix, refined as binary complex; Crystallization: 5 mg/mL (~28 uM) protein, ~34 uM duplex, 2 mM etoposide or doxorubicin, 30 mM Tris-HCl pH 7.0, 70 mM NaCl, 2 mM MnCl2 (MgCl2 for P21), 1 mM EDTA, 2 mM β-mercaptoethanol; reservoir 100 mM Mg acetate, 50 mM MES pH 5.8 (5.6 for P21), …; conditions: protein: recombinant; chain copies: 2; blunt; self-complementary, 2 copies of S1; cleaved with 4-nt stagger in the complex

B1: DNA-binding and cleavage core of human topoisomerase 2β (hTop2β^core), in the covalent cleavage complex with a 20-bp duplex DNA (domain or fragment, UniProt Q02880-2 445-1201, looked up)
chain: SVKYSKIKGIPKLDDANDAGGKHSLECTLILTEGDSAKSLAVSGLGVIGRDRYGVFPLRGKILNVREASHKQIMENAEINNIIKIVGLQYKKSYDDAESLKTLRYGKIMIMTDQDQDGSHIKGLLINFIHHNWPSLLKHGFLEEFITPIVKASKNKQELSFYSIPEFDEWKKHIENQKAWKIKYYKGLGTSTAKEAKEYFADMERHRILFRYAGPEDDAAITLAFSKKKIDDRKEWLTNFMEDRRQRRLHGLPEQFLYGTATKHLTYNDFINKELILFSNSDNERSIPSLVDGFKPGQRKVLFTCFKRNDKREVKVAQLAGSVAEMSAYHHGEQALMMTIVNLAQNFVGSNNINLLQPIGQFGTRLHGGKDAASPRYIFTMLSTLARLLFPAVDDNLLKFLYDDNQRVEPEWYIPIIPMVLINGAEGIGTGWACKLPNYDAREIVNNVRRMLDGLDPHPMLPNYKNFKGTIQELGQNQYAVSGEIFVVDRNTVEITELPVRTWTQVYKEQVLEPMLNGTDKTPALISDYKEYHTDTTVKFVVKMTEEKLAQAEAAGLHKVFKLQTTLTCNSMVLFDHMGCLKKYETVQDILKEFFDLRLSYYGLRKEWLVGMLGAESTKLNNQARFILEKIQGKITIENRSKKDLIQMLVQRGYESDPVKAWKEAQEKAAEEDETQNQHDDSSSDSGTPSGPDFNYILNMSLWSLTKEKVEELIKQRDAKGREVNDLKRKSPSDLWKEDLAAFVEELDKVESQERED
modifications: catalytic tyrosine (Tyr821) joined to the 5′-phosphate of the cleaved G-segment DNA by a phosphotyrosyl linkage
notes: Not seen in 5ZEN chain A: 445-451, 597-602, 616-624, 703-706, 1112-1134; the His tag is surmised from the Ni-NTA step; also called hTop2^core; Top2 cleavage complex; source: E. coli BL21 (DE3) Star-pLysS, purified (Ni-NTA, heparin, Superdex 200)
binding result [1]: binds

B2: 20-bp G-segment duplex, 5-iododeoxyuridine labeled (DNAI) (dsDNA)
DNA 1: AGCCGAGCUGCAGCUCGGCU
DNA 2: AGCCGAGCUGCAGCUCGGCU
modifications: 5-iodo-2'-deoxyuridine replaces all thymidines (positions 9, 15, 20 of each strand); U denotes iododeoxyuridine, DNA backbone
binding result [2]: binds

B3: 20-bp G-segment duplex (native) (dsDNA)
DNA 1: AGCCGAGCTGCAGCTCGGCT
DNA 2: AGCCGAGCTGCAGCTCGGCT
binding result [3]: binds
